In PMC12416549 (2024):
Numbering of substitutions follows the chain as printed. Names and notes keep the numbering of the source.

B1: E34R (designed binder)
chain: SMEEEVEKAAKEYEKKKKEAIEKHLEKLKAKDKRAAERFLKELEEAAKEYAKDEAKTMSEEEAKRRAKKYKEKVLLSELSEEEQKEIKEAEEKLVRTILKYVEEAAK
B2: E5D (designed binder)
chain: B1 chain with E5D, R34E
B3: L25I (designed binder)
chain: B1 chain with L25I, R34E
B4: E103D (designed binder)
chain: B1 chain with R34E, E103D
B5: E83I (designed binder)
chain: B1 chain with R34E, E83I
B6: E22W (designed binder)
chain: B1 chain with E22W, R34E
B7: E7P (designed binder)
chain: B1 chain with E7P, R34E
B8: L76E (designed binder)
chain: B1 chain with R34E, L76E
B9: S77H (designed binder)
chain: B1 chain with R34E, S77H
B10: K52L (designed binder)
chain: B1 chain with R34E, K52L
B11: E34I (designed binder)
chain: B1 chain with R34I
B12: D32H (designed binder)
chain: B1 chain with D32H, R34E
B13: I87V (designed binder)
chain: B1 chain with R34E, I87V
B14: E3G (designed binder)
chain: B1 chain with E3G, R34E
B15: A105Q (designed binder)
chain: B1 chain with R34E, A105Q
B16: H24K (designed binder)
chain: B1 chain with H24K, R34E
B17: K31Y (designed binder)
chain: B1 chain with K31Y, R34E
B18: E44S (designed binder)
chain: B1 chain with R34E, E44S
B19: V6C (designed binder)
chain: B1 chain with V6C, R34E
B20: I87C (designed binder)
chain: B1 chain with R34E, I87C
B21: S80E (designed binder)
chain: B1 chain with R34E, S80E
B22: E61K (designed binder)
chain: B1 chain with R34E, E61K
B23: E92W (designed binder)
chain: B1 chain with R34E, E92W
B24: K100H (designed binder)
chain: B1 chain with R34E, K100H
B25: E62H (designed binder)
chain: B1 chain with R34E, E62H
B26: E37H (designed binder)
chain: B1 chain with R34E, E37H
B27: L28W (designed binder)
chain: B1 chain with L28W, R34E
B28: L76F (designed binder)
chain: B1 chain with R34E, L76F
B29: A30S (designed binder)
chain: B1 chain with A30S, R34E
B30: M2I (designed binder)
chain: B1 chain with M2I, R34E
B31: Q84T (designed binder)
chain: B1 chain with R34E, Q84T
B32: L28Y (designed binder)
chain: B1 chain with L28Y, R34E
B33: K16W (designed binder)
chain: B1 chain with K16W, R34E
B34: K48M (designed binder)
chain: B1 chain with R34E, K48M
B35: Y101S (designed binder)
chain: B1 chain with R34E, Y101S
B36: L79W (designed binder)
chain: B1 chain with R34E, L79W
B37: A63C (designed binder)
chain: B1 chain with R34E, A63C
B38: K41N (designed binder)
chain: B1 chain with R34E, K41N
B39: D32Q (designed binder)
chain: B1 chain with D32Q, R34E
B40: A51V (designed binder)
chain: B1 chain with R34E, A51V
B41: L40F (designed binder)
chain: B1 chain with R34E, L40F
B42: E92G (designed binder)
chain: B1 chain with R34E, E92G
B43: K107C (designed binder)
chain: B1 chain with R34E, K107C
B44: K64I (designed binder)
chain: B1 chain with R34E, K64I
B45: A30N (designed binder)
chain: B1 chain with A30N, R34E
B46: R65E (designed binder)
chain: B1 chain with R34E, R65E
B47: K93L (designed binder)
chain: B1 chain with R34E, K93L
B48: K11W (designed binder)
chain: B1 chain with K11W, R34E
B49: K41L (designed binder)
chain: B1 chain with R34E, K41L
B50: E14Y (designed binder)
chain: B1 chain with E14Y, R34E
B51: E45V (designed binder)
chain: B1 chain with R34E, E45V
B52: Q84H (designed binder)
chain: B1 chain with R34E, Q84H
B53: K88D (designed binder)
chain: B1 chain with R34E, K88D
B54: A9G (designed binder)
chain: B1 chain with A9G, R34E
B55: K68W (designed binder)
chain: B1 chain with R34E, K68W
B56: K11F (designed binder)
chain: B1 chain with K11F, R34E
B57: A55W (designed binder)
chain: B1 chain with R34E, A55W
B58: M58E (designed binder)
chain: B1 chain with R34E, M58E
B59: S1L (designed binder)
chain: B1 chain with S1L, R34E

Molecular target: T1, TNFR1 (Homo sapiens, UniProt P19438)
T1 chain: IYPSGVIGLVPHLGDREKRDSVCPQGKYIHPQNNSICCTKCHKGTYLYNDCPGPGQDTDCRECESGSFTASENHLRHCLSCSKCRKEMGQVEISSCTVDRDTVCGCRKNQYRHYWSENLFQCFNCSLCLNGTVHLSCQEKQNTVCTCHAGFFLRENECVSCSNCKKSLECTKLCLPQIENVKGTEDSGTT
Assay: yeast display SC50

Row | apparent Kd (screen) [nM] | Binder
1 | 0.446 | B1
2 | 0.653 | B2
3 | 0.956 | B3
4 | 0.79 | B4
5 | 0.446 | B5
6 | 0.593 | B6
7 | 1.4 | B7
8 | 2.48 | B8
9 | 0.49 | B9
10 | 0.869 | B10
11 | 0.446 | B11
12 | 0.718 | B12
13 | 3 | B13
14 | 3 | B14
15 | 0.593 | B15
16 | 2.73 | B16
17 | 0.49 | B17
18 | 1.86 | B18
19 | 1.27 | B19
20 | 3.3 | B20

Row | apparent Kd (screen) [nM] | Binder
21 | 5.84 | B21
22 | 1.69 | B22
23 | 10.4 | B23
24 | 1.16 | B24
25 | 0.79 | B25
26 | 0.446 | B26
27 | 0.49 | B27
28 | 0.539 | B28
29 | 0.718 | B29
30 | 1.27 | B30
31 | 11.4 | B31
32 | 0.446 | B32
33 | 0.49 | B33
34 | 0.653 | B34
35 | 0.956 | B35
36 | 6.43 | B36
37 | 26.9 | B37
38 | 0.49 | B38
39 | 1.16 | B39
40 | 9.41 | B40

Row | apparent Kd (screen) [nM] | Binder
41 | 0.869 | B41
42 | 1.54 | B42
43 | 2.73 | B43
44 | 1.05 | B44
45 | 0.79 | B45
46 | 1.54 | B46
47 | 1.05 | B47
48 | 0.79 | B48
49 | 0.446 | B49
50 | 10.4 | B50
51 | 1.86 | B51
52 | 3.3 | B52
53 | 0.446 | B53
54 | 1.05 | B54
55 | 2.73 | B55
56 | 0.49 | B56
57 | 20.2 | B57
58 | 8.56 | B58
59 | 1.4 | B59
